Measured values: paper PMC7092865
Read-outs that look alike come from different tables or passages of the source.

Experiments:
[1] = target: T1, SUD full-length (Nsp3c) (SARS coronavirus TOR2, UniProt P0C6U8 1167-1544); test: EMSA
[2] = target: T2, SUDc5b (SARS coronavirus TOR2, UniProt P0C6U8 1207-1380); test: EMSA
[3] = target: T2, SUDc5b; test: EMSA; remark: listed apart in the source
[4] = target: T1, SUD full-length (Nsp3c); test: EMSA; remark: listed apart in the source
[5] = target: T2, SUDc5b; test: zone-interference gel electrophoresis

B1: bbc3-G14 RNA (ssRNA)
RNA: GGGUGACACUGGGGGGGGGGGGGGCUCUCCUCUCGGUGCUCCUUCACUC
What does the source list for B1?
binding result [1]: binds; binding result [2]: binds

B2: bbc3-A14 RNA (ssRNA)
RNA: GGGUGACACUAAAAAAAAAAAAAACUCUCCUCUCGGUGCUCCUUCACUC
Does B2 bind [3]?
Result: no binding

Does B2 bind [4]?
Result: no binding

B3: 2(+) (ssDNA)
DNA: CATCTATGAGGGGGGTTTACTATC
For B3, which Kd [5] is on record?
The Kd was roughly 1000 nM.

B4: 3(-) (ssDNA)
DNA: ATGTAATGCGGGGGGCACTACGTT
How did the Kd [5] turn out when B4 was run?
Its Kd is roughly 1000 nM.
